Data taken from IntAct's records for PubMed 19176810.

target: fadd_human FADD (UniProt Q13158)
UniProt Q13158, sequence (Q13158 whole entry): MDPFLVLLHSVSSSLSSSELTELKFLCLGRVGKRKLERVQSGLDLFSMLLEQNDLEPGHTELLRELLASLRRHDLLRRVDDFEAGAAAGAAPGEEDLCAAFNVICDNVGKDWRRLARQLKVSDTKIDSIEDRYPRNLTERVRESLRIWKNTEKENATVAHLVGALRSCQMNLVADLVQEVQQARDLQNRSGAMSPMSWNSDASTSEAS

Effect of a mutation on the interaction, increasing interaction:
Leucine-rich repeat serine/threonine-protein kinase 2 (Homo sapiens), Q5S007 Y1699C
Leucine-rich repeat serine/threonine-protein kinase 2 (Homo sapiens), Q5S007 G2019S
Leucine-rich repeat serine/threonine-protein kinase 2 (Homo sapiens), Q5S007 R1441C
Leucine-rich repeat serine/threonine-protein kinase 2 (Homo sapiens), Q5S007 I2020T
